Source: patent US20220017591A1 (AstraZeneca / MedImmune, published 2022)
Read-outs that look alike come from different tables or passages of the source.

T1: mouse RXFP1 (mouse, UniProt Q6R6I7 1-758)
T1 sequence (looked up): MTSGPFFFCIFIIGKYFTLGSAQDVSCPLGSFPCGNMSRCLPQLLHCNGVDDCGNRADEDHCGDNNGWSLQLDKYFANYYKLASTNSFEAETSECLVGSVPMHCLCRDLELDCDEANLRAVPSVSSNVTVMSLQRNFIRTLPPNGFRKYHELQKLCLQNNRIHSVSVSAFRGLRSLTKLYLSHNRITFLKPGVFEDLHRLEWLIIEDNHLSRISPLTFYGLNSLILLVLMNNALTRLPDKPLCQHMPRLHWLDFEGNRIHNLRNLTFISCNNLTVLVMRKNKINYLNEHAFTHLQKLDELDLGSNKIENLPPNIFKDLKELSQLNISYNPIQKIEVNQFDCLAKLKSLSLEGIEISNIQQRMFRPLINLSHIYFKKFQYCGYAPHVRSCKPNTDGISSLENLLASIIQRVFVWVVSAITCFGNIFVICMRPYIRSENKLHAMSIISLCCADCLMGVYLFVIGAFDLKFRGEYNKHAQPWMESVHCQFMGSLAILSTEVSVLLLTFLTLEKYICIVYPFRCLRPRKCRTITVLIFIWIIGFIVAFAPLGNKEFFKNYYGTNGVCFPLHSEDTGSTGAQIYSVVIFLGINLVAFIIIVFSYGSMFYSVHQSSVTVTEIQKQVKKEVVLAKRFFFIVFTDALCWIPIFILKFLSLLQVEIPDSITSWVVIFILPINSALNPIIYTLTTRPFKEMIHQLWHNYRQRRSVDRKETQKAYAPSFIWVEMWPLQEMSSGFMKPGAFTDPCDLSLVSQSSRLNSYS

T2: human RXFP1 (human, UniProt Q9HBX9 1-757)
T2 sequence (looked up): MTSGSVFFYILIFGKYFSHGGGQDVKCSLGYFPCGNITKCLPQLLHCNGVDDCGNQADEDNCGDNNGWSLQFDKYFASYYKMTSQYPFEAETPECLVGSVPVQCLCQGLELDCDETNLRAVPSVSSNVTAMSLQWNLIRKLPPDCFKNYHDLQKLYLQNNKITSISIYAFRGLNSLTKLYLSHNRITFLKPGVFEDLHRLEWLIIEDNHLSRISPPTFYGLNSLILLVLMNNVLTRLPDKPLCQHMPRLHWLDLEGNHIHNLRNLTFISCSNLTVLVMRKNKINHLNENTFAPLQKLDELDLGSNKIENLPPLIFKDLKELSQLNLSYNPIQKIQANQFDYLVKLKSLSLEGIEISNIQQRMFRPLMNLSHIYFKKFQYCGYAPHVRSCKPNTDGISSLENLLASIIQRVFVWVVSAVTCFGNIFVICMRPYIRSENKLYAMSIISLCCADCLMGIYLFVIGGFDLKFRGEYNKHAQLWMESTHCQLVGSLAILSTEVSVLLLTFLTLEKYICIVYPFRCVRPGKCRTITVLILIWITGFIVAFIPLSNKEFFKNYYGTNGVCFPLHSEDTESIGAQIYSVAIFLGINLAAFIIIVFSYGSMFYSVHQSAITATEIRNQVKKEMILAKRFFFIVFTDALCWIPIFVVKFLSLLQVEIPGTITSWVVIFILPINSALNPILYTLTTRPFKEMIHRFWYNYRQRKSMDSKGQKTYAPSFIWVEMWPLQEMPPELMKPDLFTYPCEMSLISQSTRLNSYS


Legend:
Assay in all cases: cell-based or functional assay
[1] = biological target: T1, mouse RXFP1
[2] = biological target: T3, human RXFP2 (human, UniProt Q8WXD0 1-754)
T3 sequence (Q8WXD0 whole entry): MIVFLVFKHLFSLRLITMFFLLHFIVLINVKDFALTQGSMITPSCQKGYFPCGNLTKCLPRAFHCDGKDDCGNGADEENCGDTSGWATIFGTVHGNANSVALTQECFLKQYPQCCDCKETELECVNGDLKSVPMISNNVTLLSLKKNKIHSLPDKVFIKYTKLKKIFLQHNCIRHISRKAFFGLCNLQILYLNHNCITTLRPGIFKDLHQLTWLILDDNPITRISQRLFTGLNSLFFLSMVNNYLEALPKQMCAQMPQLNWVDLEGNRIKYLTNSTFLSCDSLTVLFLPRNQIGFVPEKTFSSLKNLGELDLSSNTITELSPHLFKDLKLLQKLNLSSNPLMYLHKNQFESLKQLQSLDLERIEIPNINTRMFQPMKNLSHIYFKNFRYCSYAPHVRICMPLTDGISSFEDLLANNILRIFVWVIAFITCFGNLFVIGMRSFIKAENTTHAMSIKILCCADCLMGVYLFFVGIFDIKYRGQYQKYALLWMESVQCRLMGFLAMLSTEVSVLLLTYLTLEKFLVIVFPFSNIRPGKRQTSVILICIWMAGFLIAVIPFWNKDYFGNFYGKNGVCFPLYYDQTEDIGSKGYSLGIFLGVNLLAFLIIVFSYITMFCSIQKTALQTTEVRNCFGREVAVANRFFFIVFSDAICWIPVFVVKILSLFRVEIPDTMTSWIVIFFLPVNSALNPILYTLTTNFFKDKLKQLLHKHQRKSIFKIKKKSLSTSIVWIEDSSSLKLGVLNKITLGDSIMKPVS

[3] = biological target: T2, human RXFP1
[4] = biological target: T1, mouse RXFP1; remark: listed apart in the source
[5] = biological target: T3, human RXFP2; remark: listed apart in the source
[6] = biological target: T2, human RXFP1; remark: listed apart in the source

Row | Binder | EC50 mRXFP1 (M), cAMP assay [1] | EC50 hRXFP2 (M), cAMP assay [2] | EC50 hRXFP1 (M), cAMP assay [3] | EC50 mRXFP1 (M), cAMP assay [4] | EC50 hRXFP2 (M), cAMP assay [5] | EC50 hRXFP1 (M), cAMP assay [6]
1 | RELAX0039 (Fc fusion) chain 1: DKTHTACPPCPAPEFEGGPSVFLFPPKPKDTLMISRTPEVTCVVVDVSHEDPEVKFNWYVDGVEVHNAKTKPREEQYNSTYRVVSVLTVLHQDWLNGKEYKCKVSNKALPASIEKTISKAKGQPREPQVYTLPPCREEMTKNQVSLWCLVKGFYPSDIAVEWESNGQPENNYKTTPPVLDSDGSFFLYSKLTVDKSRWQQGNVFSCSVMHEALHNHYTQKSLSLSPGGGGGSGGGGSGGGGSGGGGGSQLYSALANMCCHVGCTKRSLARFC chain 2: DKTHTCPPCPAPEFEGGPSVFLFPPKPKDTLMISRTPEVTCVVVDVSHEDPEVKFNWYVDGVEVHNAKTKPREEQYNSTYRVVSVLTVLHQDWLNGKEYKCKVSNKALPASIEKTISKAKGQPREPQVCTLPPSREEMTKNQVSLSCAVKGFYPSDIAVEWESNGQPENNYKTTPPVLDSDGSFFLVSKLTVDKSRWQQGNVFSCSVMHEALHNHYTQKSLSLSPGGGGGSGGGGSGGGGSGGGGGSSWMEEVIKLCGRELVRAQIAICGMSTWS | 4.25e-11 M | 1.08e-07 M | 6.54e-11 M | – | – | –
2 | RELAX0040 (Fc fusion) chain 1: DKTHTACPPCPAPEFEGGPSVFLFPPKPKDTLMISRTPEVTCVVVDVSHEDPEVKFNWYVDGVEVHNAKTKPREEQYNSTYRVVSVLTVLHQDWLNGKEYKCKVSNKALPASIEKTISKAKGQPREPQVYTLPPCREEMTKNQVSLWCLVKGFYPSDIAVEWESNGQPENNYKTTPPVLDSDGSFFLYSKLTVDKSRWQQGNVFSCSVMHEALHNHYTQKSLSLSPGGGGGSGGGGSGGGGSGGGGGSQLYSALANLCCHVGCTKRSLARFC chain 2: DKTHTCPPCPAPEFEGGPSVFLFPPKPKDTLMISRTPEVTCVVVDVSHEDPEVKFNWYVDGVEVHNAKTKPREEQYNSTYRVVSVLTVLHQDWLNGKEYKCKVSNKALPASIEKTISKAKGQPREPQVCTLPPSREEMTKNQVSLSCAVKGFYPSDIAVEWESNGQPENNYKTTPPVLDSDGSFFLVSKLTVDKSRWQQGNVFSCSVMHEALHNHYTQKSLSLSPGGGGGSGGGGSGGGGSGGGGGSSWMEEVIKLCGRELVRAQIAICGMSTWS | 2.92e-11 M | > 1.27e-07 M | 5.92e-11 M | – | – | –
3 | RELAX0041 (Fc fusion) chain 1: DKTHTACPPCPAPEFEGGPSVFLFPPKPKDTLMISRTPEVTCVVVDVSHEDPEVKFNWYVDGVEVHNAKTKPREEQYNSTYRVVSVLTVLHQDWLNGKEYKCKVSNKALPASIEKTISKAKGQPREPQVYTLPPCREEMTKNQVSLWCLVKGFYPSDIAVEWESNGQPENNYKTTPPVLDSDGSFFLYSKLTVDKSRWQQGNVFSCSVMHEALHNHYTQKSLSLSPGGGGGSGGGGSGGGGSGGGGGSQLYSALANHCCHVGCTKRSLARFC chain 2: DKTHTCPPCPAPEFEGGPSVFLFPPKPKDTLMISRTPEVTCVVVDVSHEDPEVKFNWYVDGVEVHNAKTKPREEQYNSTYRVVSVLTVLHQDWLNGKEYKCKVSNKALPASIEKTISKAKGQPREPQVCTLPPSREEMTKNQVSLSCAVKGFYPSDIAVEWESNGQPENNYKTTPPVLDSDGSFFLVSKLTVDKSRWQQGNVFSCSVMHEALHNHYTQKSLSLSPGGGGGSGGGGSGGGGSGGGGGSSWMEEVIKLCGRELVRAQIAICGMSTWS | 3.17e-11 M | 1.18e-07 M | 6.22e-11 M | – | – | –
4 | RELAX0043 (Fc fusion) chain 1: DKTHTACPPCPAPEFEGGPSVFLFPPKPKDTLMISRTPEVTCVVVDVSHEDPEVKFNWYVDGVEVHNAKTKPREEQYNSTYRVVSVLTVLHQDWLNGKEYKCKVSNKALPASIEKTISKAKGQPREPQVYTLPPCREEMTKNQVSLWCLVKGFYPSDIAVEWESNGQPENNYKTTPPVLDSDGSFFLYSKLTVDKSRWQQGNVFSCSVMHEALHNHYTQKSLSLSPGGGGGSGGGGSGGGGSGGGGGSQLYSALANECCHVGCTKRSLARFC chain 2: DKTHTCPPCPAPEFEGGPSVFLFPPKPKDTLMISRTPEVTCVVVDVSHEDPEVKFNWYVDGVEVHNAKTKPREEQYNSTYRVVSVLTVLHQDWLNGKEYKCKVSNKALPASIEKTISKAKGQPREPQVCTLPPSREEMTKNQVSLSCAVKGFYPSDIAVEWESNGQPENNYKTTPPVLDSDGSFFLVSKLTVDKSRWQQGNVFSCSVMHEALHNHYTQKSLSLSPGGGGGSGGGGSGGGGSGGGGGSSWMEEVIKLCGRELVRAQIAICGMSTWS | 5.58e-11 M | > 1.58e-07 M | 7.98e-11 M | – | – | –
5 | RELAX0052 (Fc fusion) chain 1: DKTHTACPPCPAPEFEGGPSVFLFPPKPKDTLMISRTPEVTCVVVDVSHEDPEVKFNWYVDGVEVHNAKTKPREEQYNSTYRVVSVLTVLHQDWLNGKEYKCKVSNKALPASIEKTISKAKGQPREPQVYTLPPCREEMTKNQVSLWCLVKGFYPSDIAVEWESNGQPENNYKTTPPVLDSDGSFFLYSKLTVDKSRWQQGNVFSCSVMHEALHNHYTQKSLSLSPGGGGGSGGGGSGGGGSGGGGGSQLYSALANKCCHVGCTKESLARFC chain 2: DKTHTCPPCPAPEFEGGPSVFLFPPKPKDTLMISRTPEVTCVVVDVSHEDPEVKFNWYVDGVEVHNAKTKPREEQYNSTYRVVSVLTVLHQDWLNGKEYKCKVSNKALPASIEKTISKAKGQPREPQVCTLPPSREEMTKNQVSLSCAVKGFYPSDIAVEWESNGQPENNYKTTPPVLDSDGSFFLVSKLTVDKSRWQQGNVFSCSVMHEALHNHYTQKSLSLSPGGGGGSGGGGSGGGGSGGGGGSSWMEEVIKLCGRELVRAQIAICGMSTWS | 5.69e-11 M | 1.05e-07 M | 9.67e-11 M | – | – | –
6 | RELAX0110 (Fc fusion) chain 1: DKTHTCPPCPAPEFEGGPSVFLFPPKPKDTLMISRTPEVTCVVVDVSHEDPEVKFNWYVDGVEVHNAKTKPREEQYNSTYRVVSVLTVLHQDWLNGKEYKCKVSNKALPASIEKTISKAKGQPREPQVYTLPPCREEMTKNQVSLWCLVKGFYPSDIAVEWESNGQPENNYKTTPPVLDSDGSFFLYSKLTVDKSRWQQGNVFSCSVMHEALHNHYTQKSLSLSPGGGGGSGGGGGSQLYSALANKCCHVGCTKRSLARFC chain 2: DKTHTCPPCPAPEFEGGPSVFLFPPKPKDTLMISRTPEVTCVVVDVSHEDPEVKFNWYVDGVEVHNAKTKPREEQYNSTYRVVSVLTVLHQDWLNGKEYKCKVSNKALPASIEKTISKAKGQPREPQVYTLPPCREEMTKNQVSLWCLVKGFYPSDIAVEWESNGQPENNYKTTPPVLDSDGSFFLYSKLTVDKSRWQQGNVFSCSVMHEALHNHYTQKSLSLSPGAAPAPAPAPAPAPAGSSWMEEVIKLCGRELVRAQIAICGMSTWS | – | – | – | 1.11e-09 M | > 6.07e-08 M | 1.88e-09 M
7 | RELAX0111 (Fc fusion) chain 1: DKTHTCPPCPAPEFEGGPSVFLFPPKPKDTLMISRTPEVTCVVVDVSHEDPEVKFNWYVDGVEVHNAKTKPREEQYNSTYRVVSVLTVLHQDWLNGKEYKCKVSNKALPASIEKTISKAKGQPREPQVYTLPPCREEMTKNQVSLWCLVKGFYPSDIAVEWESNGQPENNYKTTPPVLDSDGSFFLYSKLTVDKSRWQQGNVFSCSVMHEALHNHYTQKSLSLSPGGGGGGSQLYSALANKCCHVGCTKRSLARFC chain 2: DKTHTCPPCPAPEFEGGPSVFLFPPKPKDTLMISRTPEVTCVVVDVSHEDPEVKFNWYVDGVEVHNAKTKPREEQYNSTYRVVSVLTVLHQDWLNGKEYKCKVSNKALPASIEKTISKAKGQPREPQVYTLPPCREEMTKNQVSLWCLVKGFYPSDIAVEWESNGQPENNYKTTPPVLDSDGSFFLYSKLTVDKSRWQQGNVFSCSVMHEALHNHYTQKSLSLSPGAAPAPAPAPAPAPAGSSWMEEVIKLCGRELVRAQIAICGMSTWS | – | – | – | 1.24e-09 M | > 6.06e-08 M | 1.93e-09 M
